The target of this assay is prefusion F hybrid: RSV F (S155C/S290C plus A102C/I148C) with transmembrane domain and cytoplasmic tail of hMPV F, on VLPs (human respiratory syncytial virus; human metapneumovirus) (UniProt P12568). The assay is described as follows: dot blot of VLPs, 5C4 signal normalized over Palivizumab, 3 independent experiments.

For the substance “5C4, a mouse monoclonal antibody (mAb) specific for the prefusion-only antigen site Φ”, the fold recognition relative to postfusion F came to 19.2 fold.

The values above are taken from patent publication US20190030156A1.
